This note sets out measurements from IntAct's records for PubMed 29892012.

First the molecules themselves.
B1: Abl interactor 2 (Homo sapiens), Q9NYB9 (parent)
chain: MAELQMLLEEEIPGGRRALFDSYTNLERVADYCENNYIQSADKQRALEETKAYTTQSLASVAYLINTLANNVLQMLDIQASQLRRMESSINHISQTVDIHKEKVARREIGILTTNKNTSRTHKIIAPANLERPVRYIRKPIDYTILDDIGHGVKWLLRFKVSTQNMKMGGLPRTTPPTQKPPSPPMSGKGTLGRHSPYRTLEPVRPPVVPNDYVPSPTRNMAPSQQSPVRTASVNQRNRTYSSSGSSGGSHPSSRSSSRENSGSGSVGVPIAVPTPSPPSVFPAPAGSAGTPPLPATSASAPAPLVPATVPSSTAPNAAAGGAPNLADGFTSPTPPVVSSTPPTGHPVQFYSMNRPASRHTPPTIGGSLPYRRPPSITSQTSLQNQMNGGPFYSQNPVSDTPPPPPPVEEPVFDESPPPPPPPEDYEEEEAAVVEYSDPYAEEDPPWAPRSYLEKVVAIYDYTKDKEDELSFQEGAIIYVIKKNDDGWYEGVMNGVTGLFPGNYVESIMHYSE

Variants of B1 are the subject of one assay. Conditions: with ift20_human IFT20, Q8IY31.
Consider E202K, for which the “effect of a mutation on the interaction” value is “with no effect”.

Variants of B1 are the subject of another assay. The note with it: with wipf1_human WIPF1, O43516.
With E202K, the “effect of a mutation on the interaction” value is “with no effect”.

A further assay covers variants of B1. Conditions: with k1h1_human KRT31, Q15323.
k1h1_human KRT31, Q15323, sequence (Q15323 whole entry): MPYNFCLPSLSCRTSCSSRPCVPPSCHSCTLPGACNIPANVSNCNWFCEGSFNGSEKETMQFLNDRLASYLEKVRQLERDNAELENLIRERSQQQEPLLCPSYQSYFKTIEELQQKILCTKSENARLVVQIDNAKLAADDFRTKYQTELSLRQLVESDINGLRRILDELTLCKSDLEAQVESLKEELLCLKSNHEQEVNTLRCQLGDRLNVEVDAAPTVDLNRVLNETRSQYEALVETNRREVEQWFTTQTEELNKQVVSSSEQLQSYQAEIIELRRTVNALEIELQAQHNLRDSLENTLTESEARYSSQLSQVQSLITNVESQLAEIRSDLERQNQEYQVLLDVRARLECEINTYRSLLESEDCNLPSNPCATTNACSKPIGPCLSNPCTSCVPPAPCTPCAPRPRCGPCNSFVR
E202K: the “effect of a mutation on the interaction” value is listed as “with no effect”.

The variants in a further assay derive from B1. Conditions: with aapk2_human PRKAA2, P54646.
aapk2_human PRKAA2, P54646, sequence (P54646 whole entry, looked up): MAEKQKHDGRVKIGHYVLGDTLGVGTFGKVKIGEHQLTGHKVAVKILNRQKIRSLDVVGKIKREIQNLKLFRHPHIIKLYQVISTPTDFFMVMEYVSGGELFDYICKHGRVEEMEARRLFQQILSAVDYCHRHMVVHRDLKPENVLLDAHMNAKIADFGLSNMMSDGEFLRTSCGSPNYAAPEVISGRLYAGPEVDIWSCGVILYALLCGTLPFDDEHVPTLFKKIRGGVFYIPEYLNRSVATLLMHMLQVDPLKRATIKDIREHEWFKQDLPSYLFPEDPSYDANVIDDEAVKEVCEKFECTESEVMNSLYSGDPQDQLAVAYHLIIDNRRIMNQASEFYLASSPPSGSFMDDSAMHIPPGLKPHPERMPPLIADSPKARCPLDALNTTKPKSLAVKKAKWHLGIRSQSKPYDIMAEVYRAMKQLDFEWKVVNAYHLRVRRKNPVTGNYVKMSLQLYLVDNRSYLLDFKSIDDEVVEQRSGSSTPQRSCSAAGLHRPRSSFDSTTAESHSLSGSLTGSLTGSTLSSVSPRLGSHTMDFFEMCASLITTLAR
For E202K, the “effect of a mutation on the interaction” value was “with no effect”.

In the next assay the parent is B1. Conditions: with skt_human KIAA1217, Q5T5P2.
In the case of E202K, the “effect of a mutation on the interaction” value is listed as “with no effect”.

The variants in another assay derive from B1. The note with it: with aapk1_human PRKAA1, Q13131.
aapk1_human PRKAA1, Q13131, sequence (Q13131 whole entry, looked up): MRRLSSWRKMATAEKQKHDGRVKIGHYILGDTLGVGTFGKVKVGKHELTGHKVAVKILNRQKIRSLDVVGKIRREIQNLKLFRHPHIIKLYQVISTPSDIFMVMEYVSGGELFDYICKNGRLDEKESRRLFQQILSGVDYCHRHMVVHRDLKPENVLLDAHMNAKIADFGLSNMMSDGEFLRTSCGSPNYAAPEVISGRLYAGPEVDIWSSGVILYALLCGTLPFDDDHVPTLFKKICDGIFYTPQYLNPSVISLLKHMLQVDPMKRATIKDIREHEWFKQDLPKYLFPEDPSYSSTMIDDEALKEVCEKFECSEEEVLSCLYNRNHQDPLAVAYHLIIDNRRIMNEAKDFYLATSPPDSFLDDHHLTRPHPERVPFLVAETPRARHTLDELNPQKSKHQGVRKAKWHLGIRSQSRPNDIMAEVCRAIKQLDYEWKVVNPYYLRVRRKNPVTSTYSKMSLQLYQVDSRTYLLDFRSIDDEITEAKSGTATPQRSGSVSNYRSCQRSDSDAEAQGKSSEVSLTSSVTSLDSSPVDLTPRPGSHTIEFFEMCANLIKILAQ
Turning to E202K, the “effect of a mutation on the interaction” value is “with no effect”.

In the next assay the parent is B1. The note with it: with eif3h_human EIF3H.
Turning to E202K, the “effect of a mutation on the interaction” value is given as “with no effect”.

A further assay covers variants of B1. The note with it: with hnrpk_human HNRNPK.
Consider E202K, for which the “effect of a mutation on the interaction” value is “with no effect”.

The next assay covers variants of B1. The note with it: with tri32_human TRIM32, Q13049.
Consider E202K, for which the “effect of a mutation on the interaction” value was “with no effect”.

Another assay covers variants of B1. The note with it: with vasp_human VASP.
Consider E202K, for which the “effect of a mutation on the interaction” value was “with no effect”.

The variants in a further assay derive from B1. The note with it: with ppif_human PPIF.
With E202K, the “effect of a mutation on the interaction” value is on record as “with no effect”.

Variants of B1 are the subject of another assay. Conditions: with KRT15, P19012.
As for E202K, the “effect of a mutation on the interaction” value is recorded as “with no effect”.

Variants of B1 are the subject of the next assay. Conditions: with nup62_human NUP62, P37198.
nup62_human NUP62, P37198, sequence (P37198 whole entry): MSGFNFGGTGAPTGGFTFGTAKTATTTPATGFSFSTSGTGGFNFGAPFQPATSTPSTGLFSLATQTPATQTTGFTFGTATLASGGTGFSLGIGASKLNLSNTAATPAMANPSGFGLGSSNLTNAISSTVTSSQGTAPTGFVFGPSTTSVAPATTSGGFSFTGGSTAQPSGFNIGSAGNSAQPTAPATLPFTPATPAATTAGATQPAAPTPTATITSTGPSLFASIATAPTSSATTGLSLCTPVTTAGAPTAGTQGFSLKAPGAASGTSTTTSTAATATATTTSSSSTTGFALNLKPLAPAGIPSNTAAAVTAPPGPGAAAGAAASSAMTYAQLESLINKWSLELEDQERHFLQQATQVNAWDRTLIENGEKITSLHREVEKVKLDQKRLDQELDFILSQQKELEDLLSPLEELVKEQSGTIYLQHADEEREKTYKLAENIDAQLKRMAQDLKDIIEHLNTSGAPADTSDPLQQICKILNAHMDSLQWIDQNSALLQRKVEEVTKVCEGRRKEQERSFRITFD
For the variant E202K, the “effect of a mutation on the interaction” value was “with no effect”.

Another assay covers variants of B1. Conditions: with KRT19, P08727.
KRT19, P08727, sequence (P08727 whole entry): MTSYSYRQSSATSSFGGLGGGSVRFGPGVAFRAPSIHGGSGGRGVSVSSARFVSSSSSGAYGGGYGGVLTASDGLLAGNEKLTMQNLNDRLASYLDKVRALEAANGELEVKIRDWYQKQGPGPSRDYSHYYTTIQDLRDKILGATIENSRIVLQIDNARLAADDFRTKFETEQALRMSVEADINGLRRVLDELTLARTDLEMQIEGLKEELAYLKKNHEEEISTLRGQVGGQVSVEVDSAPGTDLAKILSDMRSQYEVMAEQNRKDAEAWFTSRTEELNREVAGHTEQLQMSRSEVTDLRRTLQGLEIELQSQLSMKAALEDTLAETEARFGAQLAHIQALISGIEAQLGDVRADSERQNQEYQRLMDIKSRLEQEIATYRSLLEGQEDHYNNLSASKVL
With E202K, the “effect of a mutation on the interaction” value is reported as “with no effect”.

The variants in a further assay derive from B1. The note with it: with rhg32_human ARHGAP32, A7KAX9.
rhg32_human ARHGAP32, A7KAX9, sequence (A7KAX9 whole entry): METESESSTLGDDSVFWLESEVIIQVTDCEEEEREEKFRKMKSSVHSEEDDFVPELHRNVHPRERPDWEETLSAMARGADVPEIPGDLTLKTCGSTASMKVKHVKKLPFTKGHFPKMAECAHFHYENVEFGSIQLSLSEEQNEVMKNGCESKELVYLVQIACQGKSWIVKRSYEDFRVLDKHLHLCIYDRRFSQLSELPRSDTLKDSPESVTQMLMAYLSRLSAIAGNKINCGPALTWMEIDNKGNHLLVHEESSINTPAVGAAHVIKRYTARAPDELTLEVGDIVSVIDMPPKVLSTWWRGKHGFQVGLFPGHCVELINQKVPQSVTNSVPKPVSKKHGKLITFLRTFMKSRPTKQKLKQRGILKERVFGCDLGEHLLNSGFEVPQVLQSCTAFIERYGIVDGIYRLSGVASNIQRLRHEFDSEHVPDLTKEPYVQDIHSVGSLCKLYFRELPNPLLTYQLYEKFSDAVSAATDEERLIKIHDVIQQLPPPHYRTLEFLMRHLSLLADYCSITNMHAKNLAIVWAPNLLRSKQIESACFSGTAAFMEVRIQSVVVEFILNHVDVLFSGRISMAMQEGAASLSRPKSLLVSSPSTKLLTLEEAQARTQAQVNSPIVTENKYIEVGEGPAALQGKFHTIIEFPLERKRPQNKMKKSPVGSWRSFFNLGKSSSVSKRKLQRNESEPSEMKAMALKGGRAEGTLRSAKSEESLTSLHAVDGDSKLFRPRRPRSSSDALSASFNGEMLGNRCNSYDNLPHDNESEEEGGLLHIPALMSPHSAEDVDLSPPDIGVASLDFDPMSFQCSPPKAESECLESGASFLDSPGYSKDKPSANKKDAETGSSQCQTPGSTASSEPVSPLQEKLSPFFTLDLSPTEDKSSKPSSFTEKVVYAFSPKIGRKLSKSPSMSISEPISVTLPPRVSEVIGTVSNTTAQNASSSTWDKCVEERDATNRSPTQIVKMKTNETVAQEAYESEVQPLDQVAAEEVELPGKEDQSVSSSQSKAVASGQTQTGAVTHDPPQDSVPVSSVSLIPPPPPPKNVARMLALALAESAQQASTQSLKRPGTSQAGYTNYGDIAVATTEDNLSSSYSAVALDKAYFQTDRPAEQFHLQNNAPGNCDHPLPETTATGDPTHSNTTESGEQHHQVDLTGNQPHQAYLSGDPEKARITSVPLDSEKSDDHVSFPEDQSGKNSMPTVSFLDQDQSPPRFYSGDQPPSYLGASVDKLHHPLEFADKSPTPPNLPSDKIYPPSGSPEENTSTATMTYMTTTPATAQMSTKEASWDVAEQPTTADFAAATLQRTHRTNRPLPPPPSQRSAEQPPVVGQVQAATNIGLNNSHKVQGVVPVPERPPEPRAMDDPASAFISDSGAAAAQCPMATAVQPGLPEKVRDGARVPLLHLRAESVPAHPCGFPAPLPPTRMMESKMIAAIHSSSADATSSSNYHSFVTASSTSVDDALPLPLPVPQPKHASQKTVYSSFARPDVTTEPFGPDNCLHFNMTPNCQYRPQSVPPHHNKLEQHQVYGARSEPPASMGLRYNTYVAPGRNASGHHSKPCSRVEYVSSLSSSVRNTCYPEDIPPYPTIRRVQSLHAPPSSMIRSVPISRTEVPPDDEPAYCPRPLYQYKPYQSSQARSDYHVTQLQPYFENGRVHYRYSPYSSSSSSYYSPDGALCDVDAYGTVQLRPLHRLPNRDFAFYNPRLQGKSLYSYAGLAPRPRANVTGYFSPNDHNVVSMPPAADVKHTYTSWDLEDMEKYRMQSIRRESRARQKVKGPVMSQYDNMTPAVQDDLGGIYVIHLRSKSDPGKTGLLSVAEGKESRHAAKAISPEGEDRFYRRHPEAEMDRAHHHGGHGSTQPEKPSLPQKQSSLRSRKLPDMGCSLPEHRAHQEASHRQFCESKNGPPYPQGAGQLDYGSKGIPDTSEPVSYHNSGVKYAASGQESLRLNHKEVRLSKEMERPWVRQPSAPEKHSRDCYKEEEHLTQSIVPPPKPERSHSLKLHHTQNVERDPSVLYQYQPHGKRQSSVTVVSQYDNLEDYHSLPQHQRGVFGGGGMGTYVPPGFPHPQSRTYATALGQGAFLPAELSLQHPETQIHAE
On to E202K, for which the “effect of a mutation on the interaction” value is on record as “with no effect”.

In another assay the parent is B1. The note with it: with nck2_human NCK2, O43639.
nck2_human NCK2, O43639, sequence (O43639 whole entry): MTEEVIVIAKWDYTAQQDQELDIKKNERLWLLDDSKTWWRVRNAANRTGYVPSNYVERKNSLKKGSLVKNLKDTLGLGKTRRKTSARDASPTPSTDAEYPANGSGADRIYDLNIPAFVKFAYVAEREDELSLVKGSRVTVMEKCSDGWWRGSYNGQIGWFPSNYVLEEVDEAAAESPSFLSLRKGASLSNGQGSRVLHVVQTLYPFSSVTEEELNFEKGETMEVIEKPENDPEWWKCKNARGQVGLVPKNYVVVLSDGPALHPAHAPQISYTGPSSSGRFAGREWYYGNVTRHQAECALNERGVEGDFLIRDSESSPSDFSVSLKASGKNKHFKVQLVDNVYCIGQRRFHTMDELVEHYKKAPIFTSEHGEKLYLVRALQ
Turning to E202K, the “effect of a mutation on the interaction” value was “with no effect”.

The variants in a further assay derive from B1. The note with it: with hgs_human HGS.
Take E202K: the “effect of a mutation on the interaction” value is listed as “with no effect”.

In the next assay the parent is B1. Conditions: with pcm1_human PCM1, Q15154.
Regarding E202K, the “effect of a mutation on the interaction” value is on record as “with no effect”.

The next assay covers variants of B1. The note with it: with stam2_human STAM2, O75886.
Take E202K: the “effect of a mutation on the interaction” value is recorded as “with no effect”.

The next assay covers variants of B1. The note with it: with vinc_human VCL.
In the case of E202K, the “effect of a mutation on the interaction” value was “disrupting interaction strength”.

A further assay covers variants of B1. Conditions: with crx_human CRX.
Consider E202K, for which the “effect of a mutation on the interaction” value is listed as “with no effect”.

A further assay covers variants of B1. Conditions: with mr1l1_human MRFAP1L1, Q96HT8.
mr1l1_human MRFAP1L1, Q96HT8, sequence (Q96HT8 whole entry): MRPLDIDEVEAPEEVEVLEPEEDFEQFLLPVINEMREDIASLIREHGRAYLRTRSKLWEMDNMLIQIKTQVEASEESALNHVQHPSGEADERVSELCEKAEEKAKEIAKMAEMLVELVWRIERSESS
As for E202K, the “effect of a mutation on the interaction” value is listed as “disrupting interaction strength”.

A further assay covers variants of B1. Conditions: with sdcb1_human SDCBP.
For the variant E202K, the “effect of a mutation on the interaction” value is “disrupting interaction strength”.

The variants in the next assay derive from B1. Conditions: with efs_human EFS.
As to E202K, the “effect of a mutation on the interaction” value is listed as “with no effect”.
